Data as given in publication PMC4554459, “Paracoccus denitrificans possesses two BioR homologs having a role in regulation of biotin metabolism”.

T1: BioR2 (Paracoccus denitrificans PD1222, UniProt A1B662 1-221)
T1 sequence: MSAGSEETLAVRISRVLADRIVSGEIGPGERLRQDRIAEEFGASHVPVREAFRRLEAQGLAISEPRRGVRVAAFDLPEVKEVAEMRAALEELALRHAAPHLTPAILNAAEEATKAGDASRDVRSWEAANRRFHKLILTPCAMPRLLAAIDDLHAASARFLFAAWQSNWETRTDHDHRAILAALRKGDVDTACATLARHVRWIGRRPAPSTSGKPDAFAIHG


Tests used:
BioR2 [1] = biological target: T1, BioR2; assay: EMSA; ~0.2 pmol DIG-labeled probe with BioR (10-20 pmol BioR2 in 15 uL, Fig. 6) in Roche binding buffer, 15 min, room temperature; native 7% PAGE; salt and pH of binding buffer not stated (protein in PBS pH 7.4, 10% glycerol); details: protein: recombinant; tags: 6xHis (pET28a); chain copies: 2; label: digoxigenin; blunt
BioR2 [2] = biological target: T1, BioR2; assay: EMSA; pimeloyl-ACP (no effect); ~0.2 pmol DIG-labeled probe with BioR (10-20 pmol BioR2 in 15 uL, Fig. 6) in Roche binding buffer, 15 min, room temperature; native 7% PAGE; salt and pH of binding buffer not stated (protein in PBS pH 7.4, 10% glycerol); details: protein: recombinant; tags: 6xHis (pET28a); chain copies: 2; label: digoxigenin; blunt
BioR2 [3] = biological target: T1, BioR2; assay: competition; cold probe 10, 20, 50 pmol vs 0.2 pmol DIG-bioBFDAGC; ~0.2 pmol DIG-labeled probe with BioR (10-20 pmol BioR2 in 15 uL, Fig. 6) in Roche binding buffer, 15 min, room temperature; native 7% PAGE; salt and pH of binding buffer not stated (protein in PBS pH 7.4, 10% glycerol); details: protein: recombinant; tags: 6xHis (pET28a); chain copies: 2; blunt

| Binder | binding result (BioR2 [1]) | other results |
| --- | --- | --- |
| bioR1_pd probe (dsDNA) DNA 1: GGTGCAGCATGAATTATCTATAATTCATGAAACACG DNA 2: CGTGTTTCATGAATTATAGATAATTCATGCTGCACC | binds | – |
| bioYB_pd2 probe (dsDNA) DNA 1: CAAAGCCTTCGTAATTATAGATAGACTCGATACCTATC DNA 2: GATAGGTATCGAGTCTATCTATAATTACGAAGGCTTTG | binds | – |
| bioBFDAGC_pd probe (dsDNA) DNA 1: GGCGCTGACCGTTTTATAGATACTTCCACATGAGGC DNA 2: GCCTCATGTGGAAGTATCTATAAAACGGTCAGCGCC | – | binding result (BioR2 [2]): binds |
| cold bioBFDAGC_pd probe (dsDNA) DNA 1: GGCGCTGACCGTTTTATAGATACTTCCACATGAGGC DNA 2: GCCTCATGTGGAAGTATCTATAAAACGGTCAGCGCC | – | binding result (BioR2 [3]): binds |
| bioYB_pd1 probe (dsDNA) DNA 1: GATTCCCGGATAATTATCTATAAACCTAATTGCCAG DNA 2: CTGGCAATTAGGTTTATAGATAATTATCCGGGAATC | binds | – |
| bioBFDAZ_at (bioB_at) probe (dsDNA) DNA 1: CTCTCTTGAGGAGGCAAAAATTATCTATAATTTGCCATTTAACGACCTGC DNA 2: GCAGGTCGTTAAATGGCAAATTATAGATAATTTTTGCCTCCTCAAGAGAG | binds | – |
